Laboratory results: patent US20230322953A1 (HARBOUR BIOMED SHANGHAI, published 2023)

T1: biotinylated human BCMA-Fc, Avitag recombinant protein (ACRO Biosystems, #BC7-H82F0) (human, UniProt Q02223 1-54, biotinylated)
T1 construct: extracellular domain; Bought protein; also called human BCMA protein; recombinant human BCMA-ECD-Fc; not shown: Fc of the bought fusion protein; Avitag
T1 sequence (looked up): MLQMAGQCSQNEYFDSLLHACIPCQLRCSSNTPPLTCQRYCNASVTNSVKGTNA

T2: human BCMA (human, UniProt Q02223 1-184)
T2 construct: whole, on cells; the cell line is named under assay; also called TNFRSF17; CD269
T2 sequence (looked up): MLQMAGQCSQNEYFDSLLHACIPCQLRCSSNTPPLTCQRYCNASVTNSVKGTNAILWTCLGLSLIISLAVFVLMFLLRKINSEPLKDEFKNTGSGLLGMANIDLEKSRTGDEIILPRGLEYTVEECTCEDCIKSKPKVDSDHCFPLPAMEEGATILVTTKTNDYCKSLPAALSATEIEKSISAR

B1: PR001046 VH single-domain molecule (original molecule) (VHH)
VHH: EVQLVETGGGLIQPGGSLRLSCAASGFTVSDNYMTWVRQAPGKGLEWVSVIFSGGNTYYADSVKGRFTISRDNAKNTLYLQMNSLRAEDTALYYCARRNYDDTRGTDVFDIWGQGTMVTVSS
notes: not the HCAb form; not shown: Flag and His tags
B2: PR004566, PR001046 VH-derived single-domain variant 1046-R2-4G10 (VHH)
VHH: EVQLVETGGGLIQPGGSLRLSCAASGFTVSDSYMTWVRQAPGKGLEWVSVIFSGGRTYYSDSVKGRFTISRDNAKNTLYLQMNSLRAEDTALYYCARRNYDDTRGTDVFDIWGQGTMVTVSS
notes: Tested as VH single domain with Flag and His tags; not shown: Flag and His tags
B3: PR004567, PR001046 VH-derived single-domain variant 1046-R2-5E1 (VHH)
VHH: EVQLVETGGGLIQPGGSLRLSCAASGFTVSDSYMTWVRQAPGKGLEWVSVIFSGGKTYVADSVKGRFTISRDNAKNTLYLQMNSLRAEDTALYYCARRNYDQTRGTDVFDIWGQGTMVTVSS
notes: as for B2
B4: PR004560, PR001046 VH-derived single-domain variant 1046-R2-10F1 (VHH)
VHH: EVQLVETGGGLIQPGGSLRLSCAASGFTVSDAYMTWVRQAPGKGLEWVSVIFSGGNTYVSDSVKGRFTISRDNAKNTLYLQMNSLRAEDTALYYCARRNYDQTRGTDVFDIWGQGTMVTVSS
notes: as for B2
B5: PR004564, PR001046 VH-derived single-domain variant 1046-R2-2D4 (VHH)
VHH: EVQLVETGGGLIQPGGSLRLSCAASGFTVSDSYMTWVRQAPGKGLEWVSVIFSGGRTYYSDSVKGRFTISRDNAKNTLYLQMNSLRAEDTALYYCARRNYDQTLGTDVFDIWGQGTMVTVSS
notes: as for B2
B6: PR004574, PR001046 VH-derived single-domain variant 1046-R2-9E5 (VHH)
VHH: EVQLVETGGGLIQPGGSLRLSCAASGFTVSDAYMTWVRQAPGKGLEWVSVIFSGGRTYYSDSVKGRFTISRDNAKNTLYLQMNSLRAEDTALYYCARRNYDQTRGTDVFDIWGQGTMVTVSS
notes: as for B2
B7: PR004565, PR001046 VH-derived single-domain variant 1046-R2-2G4 (VHH)
VHH: EVQLVETGGGLIQPGGSLRLSCAASGFTVSDAYMTWVRQAPGKGLEWVSVIFSGGNTYVSDSVKGRFTISRDNAKNTLYLQMNSLRAEDTALYYCARRNYDQTIGTDVFDIWGQGTMVTVSS
notes: as for B2
B8: PR004569, PR001046 VH-derived single-domain variant 1046-R2-5H2 (VHH)
VHH: EVQLVETGGGLIQPGGSLRLSCAASGFTVSDSYMTWVRQAPGKGLEWVSVIFSGGRTYYSDSVKGRFTISRDNAKNTLYLQMNSLRAEDTALYYCARRNYDQTRGTDVFDIWGQGTMVTVSS
notes: as for B2
B9: PR004573, PR001046 VH-derived single-domain variant 1046-R2-8B1 (VHH)
VHH: EVQLVETGGGLIQPGGSLRLSCAASGFTVSDSYMTWVRQAPGKGLEWVSVIFSGGKTYYADSVKGRFTISRDNAKNTLYLQMNSLRAEDTALYYCARRNYDDTRGTDVFDIWGQGTMVTVSS
notes: as for B2
B10: PR004559, PR001046 VH-derived single-domain variant 1046-R1-12G7 (VHH)
VHH: EVQLVETGGGLIQPGGSLRLSCAASGFTVSDNYMTWVRQAPGKGLEWVSVIFSGGKTYYADSVKGRFTISRDNAKNTLYLQMNSLRAEDTALYYCARRNYDDTRGTDVFDIWGQGTMVTVSS
notes: Tested as VH single domain with Flag and His tags; also called PR001046-R1-12G7; not shown: Flag and His tags
B11: PR004561, PR001046 VH-derived single-domain variant 1046-R2-10H1 (VHH)
VHH: EVQLVETGGGLIQPGGSLRLSCAASGFTVSDSYMTWVRQAPGKGLEWVSVIFSGGNTYYADSVKGRFTISRDNAKNTLYLQMNSLRAEDTALYYCARRNYDQTLGTDVFDIWGQGTMVTVSS
notes: as for B2
B12: PR004570, PR001046 VH-derived single-domain variant 1046-R2-6D6 (VHH)
VHH: EVQLVETGGGLIQPGGSLRLSCAASGFTVSDAYMTWVRQAPGKGLEWVSVIFSGGRTYYADSVKGRFTISRDNAKNTLYLQMNSLRAEDTALYYCARRNYDQTRGTDVFDIWGQGTMVTVSS
notes: as for B2
B13: PR004562, PR001046 VH-derived single-domain variant 1046-R2-10H5 (VHH)
VHH: EVQLVETGGGLIQPGGSLRLSCAASGFTVSDSYMTWVRQAPGKGLEWVSVIFSGGKTYYSDSVKGRFTISRDNAKNTLYLQMNSLRAEDTALYYCARRNYDQTLGTDVFDIWGQGTMVTVSS
notes: as for B2
B14: PR004563, PR001046 VH-derived single-domain variant 1046-R2-1A1 (VHH)
VHH: EVQLVETGGGLIQPGGSLRLSCAASGFTVYDNYMTWVRQAPGKGLEWVSVIFSGGKTYVADSVKGRFTISRDNAKNTLYLQMNSLRAEDTALYYCARRNYDQTRGTDVFDIWGQGTMVTVSS
notes: as for B2
B15: PR004572, PR001046 VH-derived single-domain variant 1046-R2-7E7 (VHH)
VHH: EVQLVETGGGLIQPGGSLRLSCAASGFTVSDSYMTWVRQAPGKGLEWVSVIFSGGKTYVADSVKGRFTISRDNAKNTLYLQMNSLRAEDTALYYCARRNYDDTRGTDVFDIWGQGTMVTVSS
notes: Tested as VH single domain with Flag and His tags; also called PR001046-R2-7E7; not shown: Flag and His tags
B16: PR004568, PR001046 VH-derived single-domain variant 1046-R2-5H1 (VHH)
VHH: EVQLVETGGGLIQPGGSLRLSCAASGFTVSDAYMTWVRQAPGKGLEWVSVIFSGGRTYVADSVKGRFTISRDNAKNTLYLQMNSLRAEDTALYYCARRNYDDTRGTDVFDIWGQGTMVTVSS
notes: as for B2
B17: PR004571, PR001046 VH-derived single-domain variant 1046-R2-6F1 (VHH)
VHH: EVQLVETGGGLIQPGGSLRLSCAASGFTVSDSYMTWVRQAPGKGLEWVSVIFSGGKTYYSDSVKGRFTISRDNAKNTLYLQMNSLRAEDTALYYCARRNYDQTIGTDVFDIWGQGTMVTVSS
notes: as for B2
B18: PR001573 (bispecific antibody, human IgG1, kappa)
light: DIQMTQSPSTLSASVGDRVTVTCRASQSIYIWLAWYQQKPGKAPNLLIYKASSLETGVPSRFSGSGSGTEFTLTISSLQPDDFATYYCQQYYGSSRTFGQGTKVEIKRTVAAPSVFIFPPSDEQLKSGTASVVCLLNNFYPREAKVQWKVDNALQSGNSQESVTEQDSKDSTYSLSSTLTLSKADYEKHKVYACEVTHQGLSSPVTKSFNRGEC
chain: not shown
notes: PD-L1×CTLA4, structure 3
B19: PR001578 (bispecific antibody, human IgG1, kappa)
chain 1: EVQLVESGGGLIQPGGSLRLSCAVSGFTVSKNYMSWVRQAPGKGLEWVSVVYSGGSKTYADSVKGRFTISRDNSKNTLYLQMNSLRAEDTAVYYCARAVPHSPSSFDIWGQGTMVTVSSKLEPKSSDKTHTPPPPPRTDIQMTQSPSTLSASVGDRVTVTCRASQSIYIWLAWYQQKPGKAPNLLIYKASSLETGVPSRFSGSGSGTEFTLTISSLQPDDFATYYCQQYYGSSRTFGQGTKVEIKRTVAAPSVFIFPPSDEQLKSGTASVVCLLNNFYPREAKVQWKVDNALQSGNSQESVTEQDSKDSTYSLSSTLTLSKADYEKHKVYACEVTHQGLSSPVTKSFNRGEC
chain 2: not shown
notes: PD-L1×CTLA4, structure 9, Fc S239D, I332E

Legend:
[1] = target: T1, biotinylated human BCMA-Fc, Avitag …; test: BLI, dissociation rate relative to the original molecule PR001046 VH
human BCMA = target: T2, human BCMA; test: flow cytometry, NCI-H929 cells, Flag-tagged VH single domain, anti-tag secondary antibody
[2] = target: T1, biotinylated human BCMA-Fc, Avitag …; test: BLI (Octet Red96e), biotinylated BCMA-Fc on SA sensor, VH supernatant, 100 nM, single concentration
[3] = target: T3, human CTLA4 on cells (CHO-K1/hCTLA4; HEK293/hCTLA4; 293F-hCTLA4) (human, UniProt P16410 36-223); test: FACS, CHO-K1/hCTLA4 cells (Test 2)
T3 construct: whole, on cells

[4] = target: T4, human PD-L1 on cells (CHO-K1/hPDL1; MDA-MB-231) (human, UniProt Q9NZQ7 19-290); test: FACS, CHO-K1/hPDL1 cells (Experiment 2)
T4 construct: whole, on cells

[5] = target: T3, human CTLA4 on cells (CHO-K1/hCTLA4; …); test: competition FACS: biotinylated B7-1-Fc to CHO-K1/hCTLA4 cells (Test 2)
[6] = target: T4, human PD-L1 on cells (CHO-K1/hPDL1; …); test: competition FACS: biotinylated PD-1 to CHO-K1/hPDL1 cells (Experiment 2)

T3 sequence (P16410 36-223): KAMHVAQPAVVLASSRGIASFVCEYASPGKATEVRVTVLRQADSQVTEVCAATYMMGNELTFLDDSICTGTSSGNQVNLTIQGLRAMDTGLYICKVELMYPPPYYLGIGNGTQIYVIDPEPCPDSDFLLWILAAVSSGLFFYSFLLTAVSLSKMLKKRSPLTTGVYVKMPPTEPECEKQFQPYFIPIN
T4 sequence (Q9NZQ7 19-290): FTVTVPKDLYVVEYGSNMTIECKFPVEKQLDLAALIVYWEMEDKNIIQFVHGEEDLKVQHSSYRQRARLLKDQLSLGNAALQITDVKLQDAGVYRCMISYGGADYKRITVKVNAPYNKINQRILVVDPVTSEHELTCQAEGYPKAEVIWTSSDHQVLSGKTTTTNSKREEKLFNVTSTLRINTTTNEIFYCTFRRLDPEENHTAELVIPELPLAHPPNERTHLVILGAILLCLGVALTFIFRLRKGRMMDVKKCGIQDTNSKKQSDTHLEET

Binder	Kdis fold [1]	Maximum MFI (human BCMA)	Response [2]	koff [2] [s⁻¹]	EC50 (human BCMA) [nM]	EC50 [3] [nM]	Maximum MFI [3] [MFI]	EC50 [4] [nM]	Maximum MFI [4] [MFI]	IC50 [5] [nM]	Maximum inhibition rate (%) [5] [%]	IC50 [6] [nM]	Maximum inhibition rate (%) [6] [%]
B1	1	764	0.261	0.000696									
B2	0.41	1400	0.424	0.000286	3.17								
B3	0.29	1440	0.578	0.000201	1.72								
B4	0.43	1300	0.573	0.000301	3.75								
B5	0.33	1530	0.57	0.000228	1.34								
B6	0.45	1300	0.29	0.000314	2.9								
B7	0.34	1430	0.557	0.000236	2.42								
B8	0.36	1420	0.73	0.000254	5.87								
B9	0.41	1230	0.268	0.000282	1.72								
B10	0.54	1190	0.261	0.000379	22.4								
B11	0.43	1240	0.269	0.0003	4.38								
B12	0.34	1360	0.437	0.000234	2.15								
B13	0.31	1560	0.535	0.000217	1.24								
B14	0.37	1260	0.493	0.000259	7.96								
B15	0.34	1500	0.29	0.000236	0.54								
B16	0.33	1440	0.733	0.00023	2.85								
B17	0.31	1380	0.704	0.000219	2.86								
B18						9.9	781	0.83	8310	6.22	99.2	0.5	82.3
B19						4.65	401	1.94	5660	2.97	100	1.69	81.4
